From patent publication US20200040081A1 (SURFACE ONCOLOGY, published 2020)
Positions count from the first letter of the chain named.

T1: human CD112R over-expressed on Jurkat cells (human, UniProt Q6DKI7 1-326)
T1 construct: whole, on cells; also called Jurkat-CD112R OE; PVRIG
T1 sequence (looked up): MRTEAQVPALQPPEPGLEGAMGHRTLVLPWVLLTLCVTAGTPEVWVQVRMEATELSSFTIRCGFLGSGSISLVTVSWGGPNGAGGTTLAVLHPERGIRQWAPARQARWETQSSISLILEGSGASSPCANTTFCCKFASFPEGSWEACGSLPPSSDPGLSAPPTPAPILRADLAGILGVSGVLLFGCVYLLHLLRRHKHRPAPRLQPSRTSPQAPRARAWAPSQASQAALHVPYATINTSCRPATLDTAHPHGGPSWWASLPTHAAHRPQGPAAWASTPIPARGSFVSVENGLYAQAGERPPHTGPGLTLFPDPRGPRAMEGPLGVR

B1: Antibody 32 (antibody, V domains shown)
VH: QVQLVQSGAEVKKPGSSVKVSCKASGGTFSSYAISWVRQAPGQGLEWMGGIIPISGTANYAQKFQGRVTITADESTSTAYMELSSLRSEDTAVYYCARDTGRGYTRHFWFDPWGQGTLVTVSS
VL: DIQMTQSPSSLSASVGDRVTITCRASQSISSYLNWYQQKPGKAPKLLIYAASSLQSGVPSRFSGSGSGTDFTLTISSLQPEDFATYYCQQSDILYTFGGGTKVEIK
notes: Tested as IgG detected with anti-human IgG Fc, compared with an IgG1 isotype control; Parent of antibodies 33, 34, 35 and 36; also called antibody clone number 32; parent clone 32
B2: Antibody 46 (antibody, V domains shown)
VH: EVQLVESGGGLVQPGRSLRLSCTASGFTFGDYAMSWFRQAPGKGLEWVGFIGSKAYGGTTEYTASVKGRFTISRDGSKSIAYLQMNSLKTEDTAVYYCARGPRRYTYGMDVWGQGTTVTVSS
VL: B1 VL with D92S, I93T, L94P, Y95L
notes: also called antibody clone number 46; clone 46
B3: Antibody 34 (antibody, V domains shown)
VH: B1 VH with Y32A, I52F, T57H
VL: B1 VL
notes: Tested as IgG detected with anti-human IgG Fc, compared with an IgG1 isotype control; also called antibody clone number 34; clone 34
B4: Antibody 33 (antibody, V domains shown)
VH: B1 VH with S30G, S31N, S55P, T57I
VL: B1 VL
notes: Tested as IgG detected with anti-human IgG Fc, compared with an IgG1 isotype control; also called antibody clone number 33; clone 33
B5: Antibody 36 (antibody, V domains shown)
VH: B1 VH with S30A, S31T, I52F, I54L
VL: B1 VL
notes: Tested as IgG detected with anti-human IgG Fc, compared with an IgG1 isotype control; also called antibody clone number 36; clone 36
B6: Antibody 58 (antibody, V domains shown)
VH: B2 VH with A55F, T59E
VL: B1 VL with D92S, I93T, L94P, Y95L
notes: Tested as IgG detected with anti-human IgG Fc, compared with an IgG1 isotype control; also called antibody clone number 58; clone 58
B7: Antibody 35 (antibody, V domains shown)
VH: B1 VH with Y32A, G50N, S55V, T57I
VL: B1 VL
notes: Tested as IgG detected with anti-human IgG Fc, compared with an IgG1 isotype control; also called antibody clone number 35; clone 35
B8: Antibody 10 (antibody, V domains shown)
VH: EVQLVESGGGLVQPGRSLRLSCAASGFTFDDYAVHWVRQAPGKGLEWVSGISWSSGLIGYADSVKGRFTISRDNAKNSLYLQMNSLRAEDTAVYYCAKGPPTYQDYFDLWGRGTLVTVSS
VL: EIVLTQSPATLSLSPGERATLSCRASQSVSRYLAWYQQKPGQAPRLLIYDASNRATGIPARFSGSGSGTDFTLTISSLEPEDFAVYYCQQVSFFPPITFGGGTKVEIK
notes: Tested as IgG detected with anti-human IgG Fc, compared with an IgG1 isotype control; also called antibody clone number 10; clone 10
B9: Antibody 2 (antibody, V domains shown)
VH: EVQLVESGGGLVKPGGSLRLSCAASGFTFSEYTMNWVRQAPGKGLEWVSAIVGSGDSTYYADSVKGRFTISRDNSKNTLYLQMNSLRAEDTAVYYCAKDYSSGDWIDYGMDVWGQGTTVTVSS
VL: DIQMTQSPSSLSASVGDRVTITCQASQDISNYLNWYQQKPGKAPKLLIYDASNLATGVPSRFSGSGSGTDFTFTISSLQPEDIATYYCQQFDLLPPTFGGGTKVEIK
notes: Tested as IgG detected with anti-human IgG Fc, compared with an IgG1 isotype control; also called antibody clone number 2; clone 2
B10: Antibody 5 (antibody, V domains shown)
VH: B9 VH with V5L, K13Q, E31D, T33A, N35I, V52S, S54G, D56E
VL: B9 VL
notes: Tested as IgG detected with anti-human IgG Fc, compared with an IgG1 isotype control; also called antibody clone number 5; clone 5
B11: Antibody 15 (antibody, V domains shown)
VH: EVQLVESGGGLVQPGRSLRLSCTASGFTFGDVAMSWFRQAPGKGLEWVGYIGSKAYGGETEYTASVKGRFTISRDGSKSIAYLQMNSLKTEDTAVYYCARAGHSYGSIASNWFDPWGQGTLVTVSS
VL: DIQMTQSPSSLSASVGDRVTITCRASQSISSYLNWYQQKPGKAPKLLIYGASSLQSGVPSRFSGSGSGTDFTLTISSLQPEDFATYYCQQGFYTPWTFGGGTKVEIK
notes: Tested as IgG detected with anti-human IgG Fc, compared with an IgG1 isotype control; also called antibody clone number 15; clone 15
B12: Antibody 44 (antibody, V domains shown)
VH: QVQLVQSGAEVKKPGSSVKVSCKASGGTFDNYYISWVRQAPGQGLEWMGGIFPIFGTANYAQKFQGRVTITADESTSTAYMELSSLRSEDTAVYYCAREVGHYSGSPYYMDVWGKGTTVTVSS
VL: DIQMTQSPSTLSASVGDRVTITCRASQSINSWLAWYQQKPGKAPKLLISDASSLESGVPSRFSGSGSGTEFTLTISSLQPDDFATYYCQQVGPYLTFGGGTKVEIK
notes: Tested as IgG detected with anti-human IgG Fc, compared with an IgG1 isotype control; also called antibody clone number 44; clone 44
B13: Antibody 38 (antibody, V domains shown)
VH: EVQLLESGGGLVQPGGSLRLSCAASGFTFSGHLMSWVRQAPGKGLEWVSAISGSAGETYYADSVKGRFTISRDNSKNTLYLQMNSLRAEDTAVYYCARDAYYDDWSGWADWYFDLWGRGTLVTVSS
VL: EIVLTQSPATLSLSPGERATLSCRASQSVSRYLAWYQQKPGQAPRLLIYDASNRATGIPARFSGSGSGTDFTLTISSLEPEDFAVYYCQQVSLLPPTFGGGTKVEIK
notes: Tested as IgG detected with anti-human IgG Fc, compared with an IgG1 isotype control; also called antibody clone number 38; clone 38

Each binder was assayed against T2, mouse CD112R over-expressed on 293T cells (mouse) (assay: flow cytometry on 293T cells over-expressing mouse CD112R).
T2 construct: whole, on cells; also called 293T.mCD112R; 293T-mouse CD112R
Protocol: The ability of anti-CD112R antibodies to bind to mouse CD112R was evaluated on cells overexpressing mouse CD112R. 0.8×10⁵ 293T cells (ATCC CRL-3216) that were engineered to overexpress mouse CD112R (293T.mCD112R) were added to each well of a 96-well V bottom plate and stained with either anti-CD112R antibodies or an IgG1 isotype control at a starting concentration of […], with 3-fold serial dilutions for 30 minutes at 4° C. Cells were washed twice with PBS+2% FCS and resuspended with Alexa Fluor® 647 anti-human IgG Fc antibody (Biolegend, Cat #409320) diluted 1:100 in PBS+2% FCS and incubated at 4° C. for 20 minutes. Cells were subsequently washed twice and resuspended in PBS+2% FCS. Cellular data was acquired using a LSRFortessa X-20 (BD Biosciences) and analyzed with FlowJo software (Tree Star).
Results are depicted in FIG. 17 and Table 11. Quantitation of antibody binding to 293T.mCD112R cells was assessed by the geometric mean fluorescent intensity (gMFI) of the Alexa Fluor® 647 signal.

| 293T-mouse CD112R gMFI (fold increase over isotype) [fold] | Binder |
| --- | --- |
| 14.9 | B1 |
| 74.8 | B2 |
| 72.2 | B3 |
| 73.3 | B4 |
| 76.3 | B5 |
| 79.4 | B6 |
| 55.6 | B7 |

These binders were tested against T1, human CD112R over-expressed on Jurkat … (assay: flow cytometry on Jurkat cells over-expressing human CD112R, 0.63 ug/mL antibody).
Protocol: The ability of anti-CD112R antibodies to bind to CD112R expressed on cells was evaluated. 1×10⁵ Jurkat cells (acute T cell leukemia cell line, ATCC # TIB-152) that were either wild type or engineered to over-express human CD112R (Jurkat-CD112R OE) were added to each well of a 96-well V bottom plate and stained with either anti-CD112R antibodies or an IgG1 isotype control (0.63 μg/mL) for 1 hour at 4° C. Cells were washed twice with PBS+2% FCS and resuspended with Alexa Fluor® 647 anti-human IgG Fc antibody (Biolegend, Cat #409320) diluted 1:100 in PBS+2% FCS and incubated at 4° C. for 30 minutes. Cells were subsequently washed twice and resuspended in PBS+2% FCS. Cellular data was acquired using a LSRFortessa X-20 (BD Biosciences) and analyzed with FlowJo software (Tree Star).
Results are depicted in FIG. 1. Quantitation of antibody binding to Jurkat-CD112R OE cells was assessed by the geometric mean fluorescent intensity (gMFI) of the Alexa Fluor® 647 signal.

| Jurkat-CD112R over-expressed (OE) gMFI (fold increase over isotype) [fold] | Binder |
| --- | --- |
| 55.7 | B8 |
| 63.9 | B9 |
| 63.3 | B10 |
| 53.2 | B11 |
| 27.9 | B1 |
| 23.8 | B2 |
| 33.8 | B3 |
| 34.2 | B4 |
| 31 | B5 |
| 37.3 | B6 |
| 32.1 | B7 |
| 46.9 | B12 |
| 51.7 | B13 |
